{"source": "patent US20260201030A1", "about": "“ANTIBODY, ANTIBODY-DRUG CONJUGATE THEREOF AND USE THEREOF” (EVOPOINT BIOSCIENCES CO., LTD., priority 2021, published 2026)", "molecules": {"B1": {"name": "2D3A11-HZ1: humanized anti-Claudin18.2 antibody, VH SEQ ID NO: 38, VL SEQ ID NO: 39 (antibody, V domains shown)", "VH": "QVQLVQSGAEVKKPGASVKVSCKASGYTFTSYVVHWVRQAPGQGLEWMGYINPYNADSKYSQEFQGRATLTSDKSASTAYMELSSLRSEDMAVYYCSRSYYGNSFDVWGQGTLVTVSS", "VL": "DIVMTQSPDSLAVSLGERATINCKSSQSLLNSGNQKNYLTWYQQKPGQSPKLLFFWASTRQSGVPDRFSGSGSGTDFTLTISSLQAEDVAVYYCQNDYYFPFTFGQGTKVEIK"}}, "key": {"[1]": {"tested_on": "cynomolgus monkey Claudin18.2", "assay": "FACS species affinity on HEK293T-Claudin18.2 (cynomolgus monkey) cells", "type": "binding", "conditions": "cell-based FACS", "description": "The affinity of the anti-human Claudin18.2 humanized monoclonal antibodies for Claudin18.2 of different species was determined by flow cytometry (FACS). The experimental procedures were as follows: HEK293T-Claudin18.2 (cynomolgus monkey) cells, HEK293T-Claudin18.2 (mouse) cells and HEK293T-Claudin18.2 (rat) cells were digested, collected by centrifugation, washed three times with pre-cooled PBS, resuspended in 1% BSA (in PBS), and added to a 96-well pointed bottom plate at 3×10^5 cells/well. Each antibody subjected to gradient dilution was added, and the mixture was incubated at 4° C. for 1 h. The cells were washed three times with pre-cooled PBS, and then 1 μL of a fluorescent secondary antibody (APC: Biolegend-410712) was added to each well. The mixture was incubated at 4° C. for 0.5 h, and the cells were washed three times with pre-cooled PBS, then resuspended, and assayed on a flow cytometer."}, "[2]": {"tested_on": "HEK293T-Claudin18.2 (human) cells", "assay": "ADCC activity, fluorescein reporter system (Jurkat-NFAT-CD16a)", "type": "cell-based", "conditions": "HEK293T-Claudin18.2 (human) target cells, 5 h", "description": "ADCC activity of the anti-human Claudin18.2 humanized monoclonal antibodies was detected by a fluorescein reporter system. The experiment was carried out using a Rhinogen® Bio-Glory One-Step Firefly Luciferase Assay kit (Suzhou Rhino Bio, RA-GL04), following the manufacturer's instructions. The experimental procedures were as follows: HEK293T-Claudin18.2 (human) cells were digested, collected by centrifugation, resuspended in DMEM+1% FBS, and then plated at 50000 cells/well. Jurkat-NFAT-CD16a cells were collected by centrifugation and resuspended in 1640+1% FBS, and then plated at 100000 cells/well. Each test antibody subjected to gradient dilution was added, and the mixture was incubated at 37° C. for 5 h. 50 μL of a Bio-Glory One-Step luciferase substrate was added to each well, and readings were taken on a microplate reader (MD, SpectraMax i3x)."}, "[3]": {"biological_target": "T1, human Claudin18.2 (Homo sapiens, UniProt P56856)", "T1 construct": "expressed in transfected cells", "assay": "Cell-based FACS affinity on HEK293T-Claudin18.2 (human) cells", "type": "binding", "description": "The affinity of the anti-human Claudin18.2 humanized antibodies was detected by flow cytometry. The experimental procedures were as follows: The adherent cultured HEK293T-Claudin18.2 (human), NUGC4-Claudin18.2 (human) and NUGC4 cells were digested, collected by centrifugation, and washed three times with pre-cooled PBS. The cells were resuspended in 1% BSA (in PBS) and added to a 96-well pointed bottom plate at 3×10^5 cells/well, with a volume of 50 μL per well. Each test antibody was diluted with 1% BSA (in PBS) (starting at 100 μg/mL, diluted in a 3-fold gradient, for 10 concentration points). The test antibody subjected to gradient dilution was added to the cells at 50 μL/well, and the mixture was well mixed and incubated at 4° C. for 1 h. The cells were collected by centrifugation, washed three times with pre-cooled PBS, and resuspended in 50 μL of 1% BSA (in PBS). 1 μL of a fluorescent secondary antibody (Biolegend-410712) was added to each well, and the mixture was well mixed and incubated at 4° C. for 0.5 h. The cells were collected by centrifugation, washed three times with pre-cooled PBS, resuspended in 200 μL of PBS, and assayed on a machine."}, "[4]": {"biological_target": "T1, human Claudin18.2", "assay": "Cell-based ELISA affinity of humanized antibodies on L929-Claudin18.2 (human) cells", "type": "binding", "conditions": "L929-Claudin18.2 cells"}, "[5]": {"biological_target": "T2, human Claudin18.1 (Homo sapiens, UniProt P56856)", "T2 construct": "expressed in transfected cells", "assay": "FACS specificity of humanized antibodies on HEK293T-Claudin18.1 (human) cells", "type": "binding", "conditions": "antibody 50 μg/mL, APC secondary antibody", "description": "The specificity of the anti-human Claudin18.2 humanized monoclonal antibodies was determined by flow cytometry (FACS). The experimental procedures were as follows: HEK293T-Claudin18.1 (human) cells were digested, collected by centrifugation, washed three times with pre-cooled PBS, resuspended in 1% BSA (in PBS), and added to a 96-well pointed bottom plate at 3×10^5 cells/well. Each test antibody with a final concentration of 50 μg/mL was added, and the mixture was incubated at 4° C. for 1 h. The cells were washed three times with pre-cooled PBS, and then 1 μL of a fluorescent secondary antibody (APC: Biolegend-410712 or PE: BioLegend-410708) was added to each well. The mixture was incubated at 4° C. for 0.5 h, and the cells were washed three times with pre-cooled PBS, then resuspended, and assayed on a flow cytometer. For reference, anti-human Claudin18.1 positive control antibodies (positive control antibody-1 and positive control antibody-2) were included in the experiment."}, "[6]": {"biological_target": "T1, human Claudin18.2", "assay": "Cell-based ELISA affinity on NUGC4 cells endogenously expressing human Claudin18.2", "type": "binding"}, "[7]": {"biological_target": "T1, human Claudin18.2", "assay": "Cell-based ELISA affinity of humanized antibodies on HEK293T-Claudin18.2 (human) cells", "type": "binding", "conditions": "HEK293T-Claudin18.2 cells", "description": "The affinity of the anti-human Claudin18.2 murine monoclonal antibodies was evaluated by cell-based ELISA. The experimental procedures were as follows: The day before the experiment, HEK293T-Claudin18.2 (human) cells were plated in a 96-well plate at 5×10^4 cells/well. On the day of the experiment, the supernatant was removed, the cells in each well were washed once with 300 μL of PBS, and 100 μL of 4% paraformaldehyde was added to each well for fixation at room temperature for 20 min. Paraformaldehyde was then removed, and the cells in each well were washed twice with 300 μL of PBS. 100 μL of 2% BSA (in PBS) was added to each well, and the mixture was blocked at 37° C. for 2 h. After removing the blocking solution, each antibody subjected to gradient dilution (diluted with 2% BSA (in PBS), starting at […], in a 3-fold gradient, for a total of 11 concentration points) was added to the plate at 100 μL/well, and the mixture was incubated at 37° C. for 2 h. The supernatant was removed, and the cells in each well were washed three times with 300 μL of PBST. 100 μL of an anti-mouse IgG HRP secondary antibody (Jackson, cat #115-035-003) in 2% BSA was added to each well, and the mixture was incubated at 37° C. for 1 h. The secondary antibody was then removed, and the cells in each well were washed five times with 300 μL of PBST, followed by the addition of 100 μL of a TMB substrate (Huzhou InnoReagents Co., Ltd.) per well for color development for 5-20 min. The reaction was stopped by adding 50 μL of 2 N HCl to each well, and OD450 nm values were read on a microplate reader (manufacturer: MD, model: SpectraMax). The values obtained were plotted by GraphPad Prism to calculate the EC50 value.\nThe affinity of the anti-human Claudin18.2 humanized monoclonal antibodies was determined by cell-based ELISA. The cell-based ELISA was conducted as described in Example I-3."}, "[8]": {"tested_on": "HEK293T-Claudin18.2 (human) cells", "assay": "CDC activity, guinea pig serum killing experiment", "type": "cell-based", "conditions": "20% guinea pig serum, 5 h", "description": "CDC activity of the anti-human Claudin18.2 humanized monoclonal antibodies was detected by a guinea pig serum killing experiment. The experimental procedures were as follows: HEK293T-Claudin18.2 (human) cells were digested, collected by centrifugation, plated at 50000 cells/well, and incubated overnight. The supernatant was discarded, and 100 μL of each test antibody subjected to gradient dilution with DMEM+20% guinea pig serum (Beijing Bersee, BM361Y) was added to each well. The mixture was incubated at 37° C. for 5 h, and 20 μL of a CCK8 reagent (Suzhou Rhino Bio, QDY-003-D) was added to each well. The mixture was allowed to react for 1-4 h, and readings were taken at 450 nm on a microplate reader."}}}
{"molecule": "B1", "values": [{"measurement": "HEK293T-Claudin18.2 (cynomolgus monkey) EC50", "setting": "[1]", "result": 0.1719, "unit": "µg/mL"}, {"measurement": "ADCC activity EC50", "setting": "[2]", "result": 0.04791, "unit": "µg/mL"}, {"measurement": "HEK293T-Claudin18.2 EC50", "setting": "[3]", "result": 0.3687, "unit": "µg/mL"}, {"measurement": "HEK293T-Claudin18.2 Maximum signal value", "setting": "[3]", "result": 132603}, {"measurement": "Affinity detected by cell-based ELISA (EC50, ng/mL) L929-Claudin18.2", "setting": "[4]", "result": "17.12 ± 0.85(N = 2) ng/mL"}, {"measurement": "Mean APC fluorescence signal value", "setting": "[5]", "result": 281}, {"measurement": "Median APC fluorescence signal value", "setting": "[5]", "result": 233}, {"measurement": "Positive rate (%)", "setting": "[5]", "result": 0.69, "unit": "%"}, {"measurement": "NUCG4 EC50", "setting": "[6]", "result": 0.09518, "unit": "µg/mL"}, {"measurement": "NUCG4 Maximum signal value", "setting": "[6]; OD450", "result": 0.316}, {"measurement": "Affinity detected by cell-based ELISA (EC50, ng/mL) HEK293T-Claudin18.2", "setting": "[7]", "result": "12.67 ± 2.1(N = 2) ng/mL"}, {"measurement": "CDC activity EC50", "setting": "[8]", "result": 1.904, "unit": "µg/mL"}]}
